Data reported in the supplement of paper PMC7125110.
± gives the standard error. For some of these results: Variants at the floor of the assay were thinned out.

B1: glmS ribozyme (parent)
chain: AUAAAAGCGCCAGAACUACAGAAAUGUAGUUGACGAGGAGGAGGUUUAUCGAAUUUUCGGCGGAUGCCUCCAAA

Key:
Conditions in all cases: with glucosamine-6-phosphate
[1] = variants of: B1; assay: kcat; higher = faster cleavage; RNA array
Outline: (§1)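 Tiles of sequenced MiSeq chips were imaged over ~14 h at 37 °C. On them, barcoded ribozyme variants had been transcribed in situ by E. coli RNA polymerase and were tracked via a hybridised Cy3 probe while glucosamine-6-phosphate (40 μM to 10 mM) in HEPES/KCl/Mg(OAc)2 buffer flowed in. Per-tile medians, normalised to baseline and to non-cleaving reference variants, were fit to one- or two-exponential decays for kobs, and weighted Michaelis–Menten fits gave kcat and KM.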

[2] = variants of: B1; assay: KM; higher = weaker cofactor use; RNA array
Outline: as §1

[3] = variants of: B1; assay: self-cleavage kobs at 40 uM GlcN6P; higher = faster cleavage; RNA array
Outline: as §1

[4] = variants of: B1; assay: self-cleavage kobs at 160 uM GlcN6P; higher = faster cleavage; RNA array
Outline: as §1

[5] = variants of: B1; assay: self-cleavage kobs at 640 uM GlcN6P; higher = faster cleavage; RNA array
Outline: as §1

[6] = variants of: B1; assay: self-cleavage kobs at 2500 uM GlcN6P; higher = faster cleavage; RNA array
Outline: as §1

[7] = variants of: B1; assay: self-cleavage kobs at 10000 uM GlcN6P; higher = faster cleavage; RNA array
Outline: as §1

A12C U47A
kcat [1]: 0.011 ± 0.0034 s⁻¹
KM [2]: 1620 ± 740 µM
self-cleavage kobs at 40 uM GlcN6P [3]: 0.000246 ± 4.3e-05 s⁻¹
self-cleavage kobs at 160 uM GlcN6P [4]: 0.00131 ± 0.00027 s⁻¹
self-cleavage kobs at 640 uM GlcN6P [5]: 0.00346 ± 0.00056 s⁻¹
self-cleavage kobs at 2500 uM GlcN6P [6]: 0.00529 ± 0.00087 s⁻¹
self-cleavage kobs at 10000 uM GlcN6P [7]: 0.014 ± 0.0025 s⁻¹

G13C C71G
kcat [1]: 2.45e-05 ± 2.8e-06 s⁻¹

G29U A64U
kcat [1]: 1.06e-05 ± 2.5e-07 s⁻¹
KM [2]: 4920 ± 300 µM
self-cleavage kobs at 160 uM GlcN6P [4]: < 1e-05 s⁻¹
self-cleavage kobs at 640 uM GlcN6P [5]: < 1e-05 s⁻¹

C50U G66U
kcat [1]: 1.12e-05 ± 2.8e-06 s⁻¹
self-cleavage kobs at 640 uM GlcN6P [5]: < 1e-05 s⁻¹

U55G C70A
kcat [1]: 0.000145 ± 2.6e-05 s⁻¹
self-cleavage kobs at 40 uM GlcN6P [3]: 5.03e-05 ± 1.3e-05 s⁻¹
self-cleavage kobs at 160 uM GlcN6P [4]: 5.52e-05 ± 1.4e-05 s⁻¹
self-cleavage kobs at 640 uM GlcN6P [5]: 0.00015 ± 3e-05 s⁻¹
self-cleavage kobs at 2500 uM GlcN6P [6]: 0.000147 ± 2.4e-05 s⁻¹
self-cleavage kobs at 10000 uM GlcN6P [7]: 0.000131 ± 2.6e-05 s⁻¹

G38A C71U
kcat [1]: < 1e-05 s⁻¹

A39C U45A
kcat [1]: 0.0045 ± 0.001 s⁻¹
KM [2]: 1430 ± 550 µM
self-cleavage kobs at 40 uM GlcN6P [3]: 0.000226 ± 5.6e-05 s⁻¹
self-cleavage kobs at 160 uM GlcN6P [4]: 0.000456 ± 9.8e-05 s⁻¹
self-cleavage kobs at 640 uM GlcN6P [5]: 0.00118 ± 0.0002 s⁻¹
self-cleavage kobs at 2500 uM GlcN6P [6]: 0.00392 ± 0.001 s⁻¹
self-cleavage kobs at 10000 uM GlcN6P [7]: 0.00397 ± 0.00058 s⁻¹

G29A C70A
kcat [1]: 3.87e-05 ± 5e-06 s⁻¹
self-cleavage kobs at 640 uM GlcN6P [5]: 4.17e-05 ± 1.5e-05 s⁻¹
self-cleavage kobs at 2500 uM GlcN6P [6]: 4.02e-05 ± 1.1e-05 s⁻¹
self-cleavage kobs at 10000 uM GlcN6P [7]: 2.96e-05 ± 1.4e-05 s⁻¹

G32U A53G
kcat [1]: 0.00107 ± 0.00015 s⁻¹
KM [2]: 3390 ± 750 µM
self-cleavage kobs at 160 uM GlcN6P [4]: 5.42e-05 ± 9e-06 s⁻¹
self-cleavage kobs at 640 uM GlcN6P [5]: 0.000174 ± 1.8e-05 s⁻¹
self-cleavage kobs at 2500 uM GlcN6P [6]: 0.000375 ± 5.5e-05 s⁻¹
self-cleavage kobs at 10000 uM GlcN6P [7]: 0.000847 ± 7.5e-05 s⁻¹

U46G G66A C70G
kcat [1]: 0.000845 ± 0.00032 s⁻¹
self-cleavage kobs at 40 uM GlcN6P [3]: 6.36e-05 ± 1.7e-05 s⁻¹
self-cleavage kobs at 640 uM GlcN6P [5]: 0.000267 ± 6.1e-05 s⁻¹
self-cleavage kobs at 2500 uM GlcN6P [6]: 0.00046 ± 0.00016 s⁻¹
self-cleavage kobs at 10000 uM GlcN6P [7]: 0.000907 ± 0.00016 s⁻¹

A15C U65G
kcat [1]: 0.00172 ± 0.00056 s⁻¹
KM [2]: 4120 ± 1900 µM
self-cleavage kobs at 40 uM GlcN6P [3]: 3.62e-05 ± 1.3e-05 s⁻¹
self-cleavage kobs at 160 uM GlcN6P [4]: 4.69e-05 ± 1.1e-05 s⁻¹
self-cleavage kobs at 640 uM GlcN6P [5]: 0.000252 ± 3.6e-05 s⁻¹
self-cleavage kobs at 2500 uM GlcN6P [6]: 0.000818 ± 0.00012 s⁻¹
self-cleavage kobs at 10000 uM GlcN6P [7]: 0.00111 ± 0.00017 s⁻¹

A12C G37U
kcat [1]: < 1e-05 s⁻¹
self-cleavage kobs at 40 uM GlcN6P [3]: < 1e-05 s⁻¹

A12U C16A A33U A36C G38A G62A U69A C71U
kcat [1]: 2.12e-05 ± 1.1e-06 s⁻¹

A12U U31G U47C
kcat [1]: 0.000915 ± 0.00036 s⁻¹
self-cleavage kobs at 640 uM GlcN6P [5]: 0.000923 ± 0.00024 s⁻¹
self-cleavage kobs at 2500 uM GlcN6P [6]: 0.00136 ± 0.00036 s⁻¹
self-cleavage kobs at 10000 uM GlcN6P [7]: 0.000748 ± 0.00013 s⁻¹

G38A C61A G66U U69C C70U
kcat [1]: 4.44e-05 ± 6.1e-06 s⁻¹

C10U G35C
kcat [1]: < 1e-05 s⁻¹
self-cleavage kobs at 40 uM GlcN6P [3]: < 1e-05 s⁻¹
self-cleavage kobs at 160 uM GlcN6P [4]: < 1e-05 s⁻¹
self-cleavage kobs at 640 uM GlcN6P [5]: < 1e-05 s⁻¹

A6G C67A
kcat [1]: 0.00012 ± 9e-06 s⁻¹
KM [2]: 3130 ± 670 µM
self-cleavage kobs at 40 uM GlcN6P [3]: < 1e-05 s⁻¹
self-cleavage kobs at 10000 uM GlcN6P [7]: 9.19e-05 ± 1.6e-05 s⁻¹

U30A U56C
kcat [1]: 0.0028 ± 0.00091 s⁻¹
self-cleavage kobs at 640 uM GlcN6P [5]: 0.000126 ± 2.4e-05 s⁻¹
self-cleavage kobs at 2500 uM GlcN6P [6]: 0.000369 ± 8.1e-05 s⁻¹
self-cleavage kobs at 10000 uM GlcN6P [7]: 0.00113 ± 0.00015 s⁻¹

A12G G62C
kcat [1]: < 1e-05 s⁻¹
KM [2]: 151 ± 74 µM
self-cleavage kobs at 10000 uM GlcN6P [7]: < 1e-05 s⁻¹

A14G A15U G40U
kcat [1]: 0.00322 ± 0.00023 s⁻¹
KM [2]: 690 ± 78 µM
self-cleavage kobs at 40 uM GlcN6P [3]: 0.00018 ± 3.4e-05 s⁻¹
self-cleavage kobs at 640 uM GlcN6P [5]: 0.00146 ± 0.00029 s⁻¹
self-cleavage kobs at 2500 uM GlcN6P [6]: 0.00279 ± 0.0008 s⁻¹
self-cleavage kobs at 10000 uM GlcN6P [7]: 0.00298 ± 0.00083 s⁻¹

U47C U56C A64G
kcat [1]: 6.84e-05 ± 1.6e-05 s⁻¹
self-cleavage kobs at 640 uM GlcN6P [5]: 6.85e-05 ± 1.9e-05 s⁻¹
self-cleavage kobs at 2500 uM GlcN6P [6]: 5.93e-05 ± 1.5e-05 s⁻¹

C16A C68U
kcat [1]: 9.12e-05 ± 2.9e-06 s⁻¹
KM [2]: 878 ± 110 µM
self-cleavage kobs at 640 uM GlcN6P [5]: 3.93e-05 ± 7.5e-06 s⁻¹
self-cleavage kobs at 2500 uM GlcN6P [6]: 6.55e-05 ± 6.5e-06 s⁻¹
self-cleavage kobs at 10000 uM GlcN6P [7]: 8.53e-05 ± 7.2e-06 s⁻¹

U55G U65G
kcat [1]: 0.00419 ± 0.00048 s⁻¹
KM [2]: 3440 ± 580 µM
self-cleavage kobs at 40 uM GlcN6P [3]: 5.26e-05 ± 1.1e-05 s⁻¹
self-cleavage kobs at 160 uM GlcN6P [4]: 0.00022 ± 6.1e-05 s⁻¹
self-cleavage kobs at 640 uM GlcN6P [5]: 0.000628 ± 0.0001 s⁻¹
self-cleavage kobs at 2500 uM GlcN6P [6]: 0.00164 ± 0.00022 s⁻¹
self-cleavage kobs at 10000 uM GlcN6P [7]: 0.0033 ± 0.00045 s⁻¹

U54C C67G
kcat [1]: 0.000821 ± 0.00019 s⁻¹
KM [2]: 534 ± 220 µM
self-cleavage kobs at 40 uM GlcN6P [3]: 5.95e-05 ± 1.1e-05 s⁻¹
self-cleavage kobs at 160 uM GlcN6P [4]: 0.000179 ± 2.6e-05 s⁻¹
self-cleavage kobs at 640 uM GlcN6P [5]: 0.000519 ± 7.3e-05 s⁻¹
self-cleavage kobs at 2500 uM GlcN6P [6]: 0.000553 ± 8.6e-05 s⁻¹
self-cleavage kobs at 10000 uM GlcN6P [7]: 0.00137 ± 0.00026 s⁻¹

G29A U54G
kcat [1]: 0.00345 ± 0.00074 s⁻¹
KM [2]: 2790 ± 830 µM
self-cleavage kobs at 40 uM GlcN6P [3]: 5.97e-05 ± 1.1e-05 s⁻¹
self-cleavage kobs at 160 uM GlcN6P [4]: 0.000165 ± 2.7e-05 s⁻¹
self-cleavage kobs at 640 uM GlcN6P [5]: 0.000767 ± 0.00012 s⁻¹
self-cleavage kobs at 2500 uM GlcN6P [6]: 0.00138 ± 0.00023 s⁻¹
self-cleavage kobs at 10000 uM GlcN6P [7]: 0.00293 ± 0.00042 s⁻¹

U31A G32U
kcat [1]: 0.00113 ± 0.00055 s⁻¹
self-cleavage kobs at 160 uM GlcN6P [4]: 4.59e-05 ± 2e-05 s⁻¹
self-cleavage kobs at 640 uM GlcN6P [5]: 6.96e-05 ± 1.7e-05 s⁻¹
self-cleavage kobs at 2500 uM GlcN6P [6]: 0.000256 ± 4.4e-05 s⁻¹
self-cleavage kobs at 10000 uM GlcN6P [7]: 0.0006 ± 0.00016 s⁻¹

A39G U46A
kcat [1]: 0.00547 ± 0.00066 s⁻¹
KM [2]: 2120 ± 360 µM
self-cleavage kobs at 40 uM GlcN6P [3]: 0.000116 ± 3.8e-05 s⁻¹
self-cleavage kobs at 160 uM GlcN6P [4]: 0.000377 ± 0.0001 s⁻¹
self-cleavage kobs at 640 uM GlcN6P [5]: 0.00116 ± 0.00029 s⁻¹
self-cleavage kobs at 2500 uM GlcN6P [6]: 0.00325 ± 0.00083 s⁻¹
self-cleavage kobs at 10000 uM GlcN6P [7]: 0.00435 ± 0.0014 s⁻¹

C16A G62A
kcat [1]: < 1e-05 s⁻¹
self-cleavage kobs at 160 uM GlcN6P [4]: < 1e-05 s⁻¹

U47G C71G
kcat [1]: 0.00028 ± 1.5e-05 s⁻¹
KM [2]: 685 ± 85 µM
self-cleavage kobs at 160 uM GlcN6P [4]: 5.19e-05 ± 7.8e-06 s⁻¹
self-cleavage kobs at 640 uM GlcN6P [5]: 0.000146 ± 1.7e-05 s⁻¹
self-cleavage kobs at 2500 uM GlcN6P [6]: 0.000205 ± 2.8e-05 s⁻¹
self-cleavage kobs at 10000 uM GlcN6P [7]: 0.000265 ± 2.4e-05 s⁻¹

C16A A33U
kcat [1]: 1.2e-05 ± 3e-06 s⁻¹
self-cleavage kobs at 40 uM GlcN6P [3]: < 1e-05 s⁻¹
self-cleavage kobs at 160 uM GlcN6P [4]: < 1e-05 s⁻¹

G9C C61G
kcat [1]: 0.00838 ± 0.0021 s⁻¹
KM [2]: 4330 ± 1400 µM
self-cleavage kobs at 40 uM GlcN6P [3]: 9.12e-05 ± 1.6e-05 s⁻¹
self-cleavage kobs at 160 uM GlcN6P [4]: 0.000309 ± 5.7e-05 s⁻¹
self-cleavage kobs at 640 uM GlcN6P [5]: 0.000828 ± 0.00017 s⁻¹
self-cleavage kobs at 2500 uM GlcN6P [6]: 0.00371 ± 0.00066 s⁻¹
self-cleavage kobs at 10000 uM GlcN6P [7]: 0.00575 ± 0.00085 s⁻¹

G37A C70A
kcat [1]: 1.38e-05 ± 4.2e-06 s⁻¹
self-cleavage kobs at 40 uM GlcN6P [3]: < 1e-05 s⁻¹

U45A A64G
kcat [1]: 0.0186 ± 0.0054 s⁻¹
KM [2]: 600 ± 260 µM
self-cleavage kobs at 40 uM GlcN6P [3]: 0.000998 ± 0.00025 s⁻¹
self-cleavage kobs at 160 uM GlcN6P [4]: 0.00526 ± 0.0021 s⁻¹
self-cleavage kobs at 640 uM GlcN6P [5]: 0.0143 ± 0.0033 s⁻¹
self-cleavage kobs at 10000 uM GlcN6P [7]: 0.015 ± 0.004 s⁻¹

C10A C50U
kcat [1]: < 1e-05 s⁻¹
self-cleavage kobs at 10000 uM GlcN6P [7]: < 1e-05 s⁻¹
